Legend:
[1] = target: CD3ζL19A-GFP (L19A murine CD3ζ-GFP fusion protein), transgenic mouse thymocytes (mouse); test: immunoblot of whole lysates
[2] = target: the molecule itself; test: immunoblot of whole lysates

Row | stoichiometry N [1] | Molecule | stoichiometry N [2]
1 | 2 | CD3ζL19A-GFP (L19A murine CD3ζ-GFP fusion protein), transgenic mouse thymocytes (natural protein) | –
2 | – | CD3ζWT-GFP (wild-type murine CD3ζ-GFP fusion protein), transgenic mouse thymocytes (natural protein, UniProt P24161-1 22-164, looked up) QSFGLLDPKLCYLLDGILFIYGVIITALYLRAKFSRSAETAANLQDPNQLYNELNLGRREEYDVLEKKRARDPEMGGKQQRRRNPQEGVYNALQKDKMAEAYSEIGTKGERRRGKGHDGLYQGLSTATKDTYDALHMQTLAPR | 2

— article PMC9295770 (Proceedings of the National Academy of Sciences of the …, 2022)
